Test results: article PMC10899400, “2′-19F labelling of ribose in RNAs: a tool to analyse RNA/protein interactions by NMR in physiological conditions”

Target: Sam68 QUA1-KH (UniProt Q07666 96-260)
Experiment: EMSA; 40 uM RNA, 10-200 uM protein; NMR buffer 20 mM NaHPO4 pH 6.5, 100 mM NaCl, 1 mM beta-mercaptoethanol, 50 mM L-Arg, 50 mM L-Glu; 19F NMR of free RNA at 303 K, with or without 40% HeLa nuclear extract; EMSA 14% PAGE in TBE pH 7.6, 4 C
Conditions: protein: recombinant; tags: N-terminal His6-TEV (pLEICS-01), TEV-treated; chain copies: 2; single-stranded

Chain of Sam68 QUA1-KH (Q07666 96-260): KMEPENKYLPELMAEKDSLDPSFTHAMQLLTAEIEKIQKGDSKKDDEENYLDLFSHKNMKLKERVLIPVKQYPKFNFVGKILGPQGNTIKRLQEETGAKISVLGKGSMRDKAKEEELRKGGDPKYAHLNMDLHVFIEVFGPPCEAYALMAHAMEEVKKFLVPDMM

UUACAGGGUUUUAGACAAAAU (ssRNA) [unmodified RNA (SMN2 21-mer)]: binds.
